Data taken from the supplement of paper PMC5998384.

How the values were obtained:
HeLa Kyoto [1] = experiment: solubility in G1/S (NP-40 vs SDS abundance) (log2 ratio); higher = more soluble; details: cell cycle stage: G1/S
HeLa Kyoto [2] = experiment: solubility change mitosis vs G1/S (difference of NP-40 vs SDS log2 ratios) (log2 ratio difference); higher = more soluble in mitosis
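Wherever solubility change mitosis vs G1/S (difference of NP-40 vs SDS log2 ratios) is given: synchronized HeLa Kyoto cells (double thymidine block for G1/S, nocodazole release for mitosis), protein amounts in NP-40 versus SDS lysates quantified by mass spectrometry, three biological replicates.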
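Wherever solubility in G1/S (NP-40 vs SDS abundance) is given: HeLa Kyoto cells arrested at G1/S by double thymidine block, proteins quantified by TMT10plex mass spectrometry in mild NP-40 versus SDS extracts, three biological replicates.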

Sequence | solubility in G1/S (log2) (HeLa Kyoto [1]) | solubility change mitosis (log2) (HeLa Kyoto [2])
MEESMEEEEGGSYEAMMDDQNHNNWEAAVDGFRQPLPPPPPPSSIPAPAREPPGGQLLAVPAVSVDRKGPKEGLPMGPQPPPEANGVIMMLKSCDAAAAVAKAAPAPTASSTININTSTSKFLMNVITIEDYKSTYWPKLDGAIDQLLTQSPGDYIPISYEQIYSCVYKCVCQQHSEQMYSDLIKKITNHLERVSKELQASPPDLYIERFNIALGQYMGALQSIVPLFIYMNKFYIETKLNRDLKDDLIKLFTEHVAEKHIYSLMPLLLEAQSTPFQVTPSTMANIVKGLYTLRPEWVQMAPTLFSKFIPNILPPAVESELSEYAAQDQKFQRELIQNGFTRGDQSRKRAGDELAYNSSSACASSRGYR [CACUL1] | 0.278 | 0.103
MEFLLGNPFSTPVGQCLEKATDGSLQSEDWTLNMEICDIINETEEGPKDAIRALKKRLNGNRNYREVMLALTVLETCVKNCGHRFHILVANRDFIDSVLVKIISPKNNPPTIVQDKVLALIQAWADAFRSSPDLTGVVHIYEELKRKGVEFPMADLDALSPIHTPQRSVPEVDPAATMPRSQSQQRTSAGSYSSPPPAPYSAPQAPALSVTGPITANSEQIARLRSELDVVRGNTKVMSEMLTEMVPGQEDSSDLELLQELNRTCRAMQQRIVELISRVSNEEVTEELLHVNDDLNNVFLRYERFERYRSGRSVQNASNGVLNEVTEDNLIDLGPGSPAVVSPMVGNTAPPSSLSSQLAGLDLGTESVSGTLSSLQQCNPRDGFDMFAQTRGNSLAEQRKTVTYEDPQAVGGLASALDNRKQSSEGIPVAQPSVMDDIEVWLRTDLKGDDLEEGVTSEEFDKFLEERAKAAEMVPDLPSPPMEAPAPASNPSGRKKPERSEDALFAL [TOM1L2] | 0.292 | -0.0085
MEGESSRFEIHTPVSDKKKKKCSIHKERPQKHSHEIFRDSSLVNEQSQITRRKKRKKDFQHLISSPLKKSRICDETANATSTLKKRKKRRYSALEVDEEAGVTVVLVDKENINNTPKHFRKDVDVVCVDMSIEQKLPRKPKTDKFQVLAKSHAHKSEALHSKVREKKNKKHQRKAASWESQRARDTLPQSESHQEESWLSVGPGGEITELPASAHKNKSKKKKKKSSNREYETLAMPEGSQAGREAGTDMQESQPTVGLDDETPQLLGPTHKKKSKKKKKKKSNHQEFEALAMPEGSQVGSEVGADMQESRPAVGLHGETAGIPAPAYKNKSKKKKKKSNHQEFEAVAMPESLESAYPEGSQVGSEVGTVEGSTALKGFKESNSTKKKSKKRKLTSVKRARVSGDDFSVPSKNSESTLFDSVEGDGAMMEEGVKSRPRQKKTQACLASKHVQEAPRLEPANEEHNVETAEDSEIRYLSADSGDADDSDADLGSAVKQLQEFIPNIKDRATSTIKRMYRDDLERFKEFKAQGVAIKFGKFSVKENKQLEKNVEDFLALTGIESADKLLYTDRYPEEKSVITNLKRRYSFRLHIGRNIARPWKLIYYRAKKMFDVNNYKGRYSEGDTEKLKMYHSLLGNDWKTIGEMVARSSLSVALKFSQISSQRNRGAWSKSETRKLIKAVEEVILKKMSPQELKEVDSKLQENPESCLSIVREKLYKGISWVEVEAKVQTRNWMQCKSKWTEILTKRMTNGRRIYYGMNALRAKVSLIERLYEINVEDTNEIDWEDLASAIGDVPPSYVQTKFSRLKAVYVPFWQKKTFPEIIDYLYETTLPLLKEKLEKMMEKKGTKIQTPAAPKQVFPFRDIFYYEDDSEGEDIEKESEGQAPCMAHACNSSTLGGQGRWII [TTF1] | -1.02 | 0.169
MEGSFSDGGALPEGLAEEAEPQGAAWSGDSGTVSQSHSSASGPWEDEGAEDGAPGRDLPLLRRAAAGYAACLLPGAGARPEVEALDASLEDLLTRVDEFVGMLDMLRGDSSHVVSEGVPRIHAKAAEMRRIYSRIDRLEAFVRMVGGRVARMEEQVTKAEAELGTFPRAFKKLLHTMNVPSLFSKSAPSRPQQAGYEAPVLFRTEDYFPCCSERPQL [BLOC1S4] | 0.477 | 0.323
MEKMSRVTTALGGSVLTGRTMHCHLDAPANAISVCRDAAQVVVAGRSIFKIYAIEEEQFVEKLNLRVGRKPSLNLSCADVVWHQMDENLLATAATNGVVVTWNLGRPSRNKQDQLFTEHKRTVNKVCFHPTEAHVLLSGSQDGFMKCFDLRRKDSVSTFSGQSESVRDVQFSIRDYFTFASTFENGNVQLWDIRRPDRCERMFTAHNGPVFCCDWHPEDRGWLATGGRDKMVKVWDMTTHRAKEMHCVQTIASVARVKWRPECRHHLATCSMMVDHNIYVWDVRRPFVPAAMFEEHRDVTTGIAWRHPHDPSFLLSGSKDSSLCQHLFRDASQPVERANPEGLCYGLFGDLAFAAKESLVAAESGRKPYTGDRRHPIFFKRKLDPAEPFAGLASSALSVFETEPGGGGMRWFVDTAERYALAGRPLAELCDHNAKVARELGRNQVAQTWTMLRIIYCSPGLVPTANLNHSVGKGGSCGLPLMNSFNLKDMAPGLGSETRLDRSKGDARSDTVLLDSSATLITNEDNEETEGSDVPADYLLGDVEGEEDELYLLDPEHAHPEDPECVLPQEAFPLRHEIVDTPPGPEHLQDKADSPHVSGSEADVASLAPVDSSFSLLSVSHALYDSRLPPDFFGVLVRDMLHFYAEQGDVQMAVSVLIVLGERVRKDIDEQTQEHWYTSYIDLLQRFRLWNVSNEVVKLSTSRAVSCLNQASTTLHVNCSHCKRPMSSRGWVCDRCHRCASMCAVCHHVVKGLFVWCQGCSHGGHLQHIMKWLEGSSHCPAGCGHLCEYS [WDR24] | -0.232 | -0.106
MELATRYQIPKEVADIFNAPSDDEEFVGFRDDVPMETLSSEESCDSFDSLESGKQQDVRFHSKYFTEELRRIFIEDTDSETEDFAGFTQSDLNGKTNPEVMVVESDLSDDGKASLVSEEEEDEEEDKATPRRSRSRRSSIGLRVAFQFPTKKLANKPDKNSSSEQLFSSARLQNEKKTILERKKDCRQVIQREDSTSESEDDSRDESQESSDALLKRTMNIKENKAMLAQLLAELNSMPDFFPVRTPTSASRKKTVRRAFSEGQITRRMNPTRSARPPEKFALENFTVSAAKFAEEFYSFRRRKTIGGKCREYRRRHRISSFRPVEDITEEDLENVAITVRDKIYDKVLGNTCHQCRQKTIDTKTVCRNQGCCGVRGQFCGPCLRNRYGEDVRSALLDPDWVCPPCRGICNCSYCRKRDGRCATGILIHLAKFYGYDNVKEYLESLQKELVEDN [CDCA7L] | -0.846 | 0.727
MELGKGKLLRTGLNALHQAVHPIHGLAWTDGNQVVLTDLRLHSGEVKFGDSKVIGQFECVCGLSWAPPVADDTPVLLAVQHEKHVTVWQLCPSPMESSKWLTSQTCEIRGSLPILPQGCVWHPKCAILTVLTAQDVSIFPNVHSDDSQVKADINTQGRIHCACWTQDGLRLVVAVGSSLHSYIWDSAQKTLHRCSSCLVFDVDSHVCSITATVDSQVAIATELPLDKICGLNASETFNIPPNSKDMTPYALPVIGEVRSMDKEATDSETNSEVSVSSSYLEPLDLTHIHFNQHKSEGNSLICLRKKDYLTGTGQDSSHLVLVTFKKAVTMTRKVTIPGILVPDLIAFNLKAHVVAVASNTCNIILIYSVIPSSVPNIQQIRLENTERPKGICFLTDQLLLILVGKQKLTDTTFLPSSKSDQYAISLIVREIMLEEEPSITSGESQTTYSTFSAPLNKANRKKLIESLSPDFCHQNKGLLLTVNTSSQNGRPGRTLIKEIQSPLSSICDGSIALDAEPVTQPASLPRHSSTPDHTSTLEPPRLPQRKNLQSEKETYQLSKEVEILSRNLVEMQRCLSELTNRLHNGKKSSSVYPLSQDLPYVHIIYQKPYYLGPVVEKRAVLLCDGKLRLSTVQQTFGLSLIEMLHDSHWILLSADSEGFIPLTFTATQEIIIRDGSLSRSDVFRDSFSHSPGAVSSLKVFTGLAAPSLDTTGCCNHVDGMA [C2ORF44] | -0.00732 | -0.0919
MENELPVPHTSSSACATSSTSGASSSSGCNNSSSGGSGRPTGPQISVYSGIPDRQTVQVIQQALHRQPSTAAQYLQQMYAAQQQHLMLQTAALQQQHLSSAQLQSLAAVQQASLVSNRQGSTSGSNVSAQAPAQSSSINLAASPAAAQLLNRAQSVNSAAASGIAQQAVLLGNTSSPALTASQAQMYLRAQMLIFTPTATVATVQPELGTGSPARPPTPAQVQNLTLRTQQTPAAAASGPTPTQPVLPSLALKPTPGGSQPLPTPAQSRNTAQASPAGAKPGIADSVMEPHKKGDGNSSVPGSMEGRAGLSRTVPAVAAHPLIAPAYAQLQPHQLLPQPSSKHLQPQFVIQQQPQPQQQQPPPQQSRPVLQAEPHPQLASVSPSVALQPSSEAHAMPLGPVTPALPLQCPTANLHKPGGSQQCHPPTPDTGPQNGHPEGVPHTPQRRFQHTSAVILQLQPASPPQQCVPDDWKEVAPGEKSVPETRSGPSPHQQAIVTAMPGGLPVPTSPNIQPSPAHETGQGIVHALTDLSSPGMTSGNGNSASSIAGTAPQNGENKPPQAIVKPQILTHVIEGFVIQEGAEPFPVGRSSLLVGNLKKKYAQGFLPEKLPQQDHTTTTDSEMEEPYLQESKEEGAPLKLKCELCGRVDFAYKFKRSKRFCSMACAKRYNVGCTKRVGLFHSDRSKLQKAGAATHNRRRASKASLPPLTKDTKKQPTGTVPLSVTAALQLTHSQEDSSRCSDNSSYEEPLSPISASSSTSRRRQGQRDLELPDMHMRDLVGMGHHFLPSEPTKWNVEDVYEFIRSLPGCQEIAEEFRAQEIDGQALLLLKEDHLMSAMNIKLGPALKIYARISMLKDS [PHC2] | -0.368 | 0.555
MEPLKVEKFATAKRGNGLRAVTPLRPGELLFRSDPLAYTVCKGSRGVVCDRCLLGKEKLMRCSQCRVAKYCSAKCQKKAWPDHKRECKCLKSCKPRYPPDSVRLLGRVVFKLMDGAPSESEKLYSFYDLESNINKLTEDKKEGLRQLVMTFQHFMREEIQDASQLPPAFDLFEAFAKVICNSFTICNAEMQEVGVGLYPSISLLNHSCDPNCSIVFNGPHLLLRAVRDIEVGEELTICYLDMLMTSEERRKQLRDQYCFECDCFRCQTQDKDADMLTGDEQVWKEVQESLKKIEELKAHWKWEQVLAMCQAIISSNSERLPDINIYQLKVLDCAMDACINLGLLEEALFYGTRTMEPYRIFFPGSHPVRGVQVMKVGKLQLHQGMFPQAMKNLRLAFDIMRVTHGREHSLIEDLILLLEECDANIRAS [SMYD3] | -0.0441 | -0.167
